Earlier results, collected in article PMC6753016.
Like-named read-outs stand apart in the source and are kept apart here. Each block holds one substance with its values, some of them ahead of it.

What was measured:
[1] = biological target: Carboxypeptidase A (Bos taurus) (UniProt P00730)
[2] = biological target: Carboxypeptidase B (Sus scrofa) (UniProt P09955)
[3] = biological target: Factor XIIa (Homo sapiens) (UniProt P00748)
[4] = biological target: Trypsin (Bos taurus) (UniProt P00760)
[5] = biological target: Cathepsin H (UniProt P09668)
[6] = biological target: Cathepsin H (UniProt P09668); remark: listed apart in the source
[7] = biological target: Trypsin (Bos taurus) (UniProt P00760); remark: listed apart in the source
[8] = biological target: Leukocyte elastase (UniProt P08246)
[9] = biological target: Chymotrypsin (Bos taurus) (UniProt P00766)
[10] = biological target: Mast cell chymase (Homo sapiens) (UniProt P23946)
[11] = biological target: Duadenase (Bos taurus) (UniProt P80219)
[12] = biological target: Cathepsin G (Homo sapiens) (UniProt P08311)
[13] = biological target: Factor XIIa (Homo sapiens) (UniProt P00748); remark: listed apart in the source
[14] = biological target: Plasma kallikrein (Homo sapiens) (UniProt P03952)
[15] = biological target: Plasmin (Homo sapiens) (UniProt P00747)
[16] = biological target: Chymotrypsin (Bos taurus) (UniProt P00766); remark: listed apart in the source
[17] = biological target: Factor XIIa (Homo sapiens) (UniProt P00748); remark: listed apart in the source
[18] = biological target: Trypsin (Bos taurus) (UniProt P00760); remark: listed apart in the source
[19] = biological target: Plasmin (Homo sapiens) (UniProt P00747); remark: listed apart in the source
[20] = biological target: Kallikrein 4 (Homo sapiens) (UniProt Q9Y5K2)
[21] = biological target: Matriptase (Homo sapiens) (UniProt Q9Y5Y6)
[22] = biological target: β-tryptase (Homo sapiens) (UniProt Q15661)
[23] = biological target: Trypsin (Bos taurus) (UniProt P00760); remark: listed apart in the source
[24] = biological target: Chymotrypsin (Bos taurus) (UniProt P00766); remark: listed apart in the source
[25] = biological target: Trypsin (Bos taurus) (UniProt P00760); remark: listed apart in the source
[26] = biological target: Cathepsin B (UniProt P07858)
[27] = biological target: Cathepsin L (UniProt P07711)
Target sequence in this assay (P07711 114-288, chain 1 of 2): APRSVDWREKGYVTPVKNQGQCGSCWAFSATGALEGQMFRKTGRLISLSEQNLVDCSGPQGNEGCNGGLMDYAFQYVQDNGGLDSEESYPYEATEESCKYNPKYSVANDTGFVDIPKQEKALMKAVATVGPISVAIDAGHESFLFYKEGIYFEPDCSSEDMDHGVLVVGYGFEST
Target sequence in this assay (P07711 292-333, chain 2 of 2): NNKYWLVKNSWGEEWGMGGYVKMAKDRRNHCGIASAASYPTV

[28] = biological target: Dipeptidyl peptidase I (UniProt P53634)
[29] = biological target: Clostripain (Hathewaya histolytica) (UniProt P09870)
[30] = biological target: Cathepsin L (UniProt P07711); remark: listed apart in the source
Target sequence in this assay (P07711 292-333): as the sequence (P07711 292-333, chain 2 of 2) above

[31] = biological target: Clostripain (UniProt P09870)
[32] = biological target: Cathepsin B (UniProt P07858); remark: listed apart in the source
[33] = biological target: Factor XIIa (Homo sapiens) (UniProt P00748); remark: listed apart in the source
[34] = biological target: Trypsin (Bos taurus) (UniProt P00760); remark: listed apart in the source
[35] = biological target: Plasmin (Homo sapiens) (UniProt P00747); remark: listed apart in the source
[36] = biological target: Chymotrypsin (Bos taurus) (UniProt P00766); remark: listed apart in the source
[37] = biological target: Cathepsin G (Homo sapiens) (UniProt P08311); remark: listed apart in the source
[38] = biological target: Trypsin (Bos taurus) (UniProt P00760); remark: listed apart in the source
[39] = biological target: Hageman factor (Homo sapiens) (UniProt P00748)
[40] = biological target: β-Trypsin (Bos taurus) (UniProt P00760)
[41] = biological target: Factor XIIa (Homo sapiens) (UniProt P00748); remark: listed apart in the source
[42] = biological target: Factor Xa (Homo sapiens) (UniProt P00742)
[43] = biological target: Kallikrein (Homo sapiens) (UniProt P03952)
[44] = biological target: Cathepsin L (UniProt P07711); remark: listed apart in the source
Target sequence in this assay (P07711 114-288, chain 1 of 2): as the sequence (P07711 114-288, chain 1 of 2) above
Target sequence in this assay (P07711 292-333, chain 2 of 2): as the sequence (P07711 292-333, chain 2 of 2) above

[45] = biological target: Leukocyte elastase (UniProt P08246); remark: listed apart in the source
[46] = biological target: Pancreatic elastase (Sus scrofa) (UniProt P00772)
[47] = biological target: Cathepsin L (UniProt P07711); remark: listed apart in the source
Target sequence in this assay (P07711 292-333): as the sequence (P07711 292-333, chain 2 of 2) above

[48] = biological target: Factor XIIa (Homo sapiens) (UniProt P00748); remark: listed apart in the source
[49] = biological target: Neutrophil elastase (Homo sapiens) (UniProt P08246)
[50] = biological target: Plasma kallikrein (Homo sapiens) (UniProt P03952); remark: listed apart in the source
[51] = biological target: Plasmin (Homo sapiens) (UniProt P00747); remark: listed apart in the source
[52] = biological target: Factor XIIa (Homo sapiens) (UniProt P00748); remark: listed apart in the source
[53] = biological target: Plasma kallikrein (Homo sapiens) (UniProt P03952); remark: listed apart in the source
[54] = biological target: Trypsin (Bos taurus) (UniProt P00760); remark: listed apart in the source
[55] = biological target: Factor Xa (Homo sapiens) (UniProt P00742); remark: listed apart in the source

Sequence of Plasmin (Homo sapiens) (P00747 581-810): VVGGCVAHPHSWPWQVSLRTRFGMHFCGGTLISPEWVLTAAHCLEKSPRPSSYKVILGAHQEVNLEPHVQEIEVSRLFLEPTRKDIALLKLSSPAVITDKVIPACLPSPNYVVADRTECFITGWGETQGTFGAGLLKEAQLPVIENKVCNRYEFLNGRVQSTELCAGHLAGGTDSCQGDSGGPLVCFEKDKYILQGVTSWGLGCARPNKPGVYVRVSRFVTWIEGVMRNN
Sequence of Trypsin (Bos taurus) (P00760 149-246): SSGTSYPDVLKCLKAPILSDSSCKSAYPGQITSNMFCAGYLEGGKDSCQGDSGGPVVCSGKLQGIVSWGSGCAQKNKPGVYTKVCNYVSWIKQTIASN
Sequence of Cruzipain inhibitor (BbCI) (P83051 whole entry): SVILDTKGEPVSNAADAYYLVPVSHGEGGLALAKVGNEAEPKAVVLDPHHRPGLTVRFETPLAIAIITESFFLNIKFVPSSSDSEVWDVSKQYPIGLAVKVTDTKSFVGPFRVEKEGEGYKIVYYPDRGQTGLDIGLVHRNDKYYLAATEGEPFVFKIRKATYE
Sequence of Factor XIIa (Homo sapiens) (P00748 whole entry, looked up): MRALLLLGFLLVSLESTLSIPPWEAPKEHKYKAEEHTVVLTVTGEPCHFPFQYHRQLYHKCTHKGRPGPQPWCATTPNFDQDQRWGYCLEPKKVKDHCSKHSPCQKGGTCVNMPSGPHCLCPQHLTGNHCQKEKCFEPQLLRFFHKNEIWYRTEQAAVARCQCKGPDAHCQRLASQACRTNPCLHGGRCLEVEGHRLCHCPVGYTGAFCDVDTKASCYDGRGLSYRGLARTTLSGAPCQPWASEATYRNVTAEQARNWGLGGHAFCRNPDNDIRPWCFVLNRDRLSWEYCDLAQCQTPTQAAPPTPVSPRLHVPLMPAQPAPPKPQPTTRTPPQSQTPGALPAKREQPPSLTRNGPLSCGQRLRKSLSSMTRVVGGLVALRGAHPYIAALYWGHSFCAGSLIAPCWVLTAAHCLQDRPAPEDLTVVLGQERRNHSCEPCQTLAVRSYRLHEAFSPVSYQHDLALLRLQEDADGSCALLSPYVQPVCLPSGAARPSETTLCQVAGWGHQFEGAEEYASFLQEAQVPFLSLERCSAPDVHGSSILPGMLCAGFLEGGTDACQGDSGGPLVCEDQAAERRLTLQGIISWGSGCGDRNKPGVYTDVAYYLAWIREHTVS
Sequence of Plasma kallikrein (Homo sapiens) (P03952 391-638): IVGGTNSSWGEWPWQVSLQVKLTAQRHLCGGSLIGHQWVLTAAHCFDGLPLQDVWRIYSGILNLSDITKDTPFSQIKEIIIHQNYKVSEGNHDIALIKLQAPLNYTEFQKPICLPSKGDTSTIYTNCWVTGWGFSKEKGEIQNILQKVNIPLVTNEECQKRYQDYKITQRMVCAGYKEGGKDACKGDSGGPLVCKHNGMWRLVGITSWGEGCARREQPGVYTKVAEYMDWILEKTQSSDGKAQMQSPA
Sequence of LLDTI-II (P26771 2-30): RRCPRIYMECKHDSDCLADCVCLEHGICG
Sequence of LCTI-II (P25850 whole entry): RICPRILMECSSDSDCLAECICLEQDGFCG
Sequence of SKTI-31 (P01070 25-205): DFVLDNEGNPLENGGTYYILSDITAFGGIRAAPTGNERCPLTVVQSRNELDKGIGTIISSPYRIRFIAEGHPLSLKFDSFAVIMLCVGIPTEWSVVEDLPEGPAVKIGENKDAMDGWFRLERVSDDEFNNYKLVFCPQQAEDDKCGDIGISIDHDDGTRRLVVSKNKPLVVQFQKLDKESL
Sequence of MCoTI-II (P82409 whole entry): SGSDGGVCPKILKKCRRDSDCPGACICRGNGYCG
Sequence of ATSI (P80211 whole entry): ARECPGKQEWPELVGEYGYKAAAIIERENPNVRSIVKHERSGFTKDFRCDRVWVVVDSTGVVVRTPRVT
Sequence of EcTI (P86451 1-134): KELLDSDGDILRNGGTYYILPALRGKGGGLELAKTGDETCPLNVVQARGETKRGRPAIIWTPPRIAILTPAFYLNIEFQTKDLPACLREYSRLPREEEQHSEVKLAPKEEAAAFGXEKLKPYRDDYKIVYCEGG
Sequence of EcTI (P86451 135-174): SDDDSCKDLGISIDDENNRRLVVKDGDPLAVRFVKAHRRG
Sequence of Soybean BBI (P01055 40-110): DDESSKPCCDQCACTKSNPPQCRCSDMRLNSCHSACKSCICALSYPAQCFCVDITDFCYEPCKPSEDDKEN
Sequence of Leukocyte elastase (P08246 30-267): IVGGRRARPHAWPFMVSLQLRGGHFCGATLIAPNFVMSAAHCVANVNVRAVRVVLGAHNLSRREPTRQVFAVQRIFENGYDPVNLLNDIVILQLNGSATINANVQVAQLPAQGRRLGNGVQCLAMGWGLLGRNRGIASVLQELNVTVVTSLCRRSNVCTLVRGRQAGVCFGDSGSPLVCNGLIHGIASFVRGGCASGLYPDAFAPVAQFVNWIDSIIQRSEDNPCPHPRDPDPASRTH
Sequence of Cathepsin G (Homo sapiens) (P08311 21-243): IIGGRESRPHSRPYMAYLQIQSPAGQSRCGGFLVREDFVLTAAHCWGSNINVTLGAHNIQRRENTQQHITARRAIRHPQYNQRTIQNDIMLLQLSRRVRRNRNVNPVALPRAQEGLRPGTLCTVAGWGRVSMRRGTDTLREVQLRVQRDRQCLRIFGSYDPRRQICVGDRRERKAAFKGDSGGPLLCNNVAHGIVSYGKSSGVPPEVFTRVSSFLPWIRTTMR
Sequence of Oryzacystatin-II (P20907 whole entry): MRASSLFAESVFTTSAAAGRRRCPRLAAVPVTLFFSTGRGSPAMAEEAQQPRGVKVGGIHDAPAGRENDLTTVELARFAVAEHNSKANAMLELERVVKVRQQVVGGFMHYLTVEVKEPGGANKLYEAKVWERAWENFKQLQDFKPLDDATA
Sequence of CMTI-I (P01074 whole entry): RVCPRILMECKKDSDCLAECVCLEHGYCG
Sequence of CMTI-V (P19873 whole entry): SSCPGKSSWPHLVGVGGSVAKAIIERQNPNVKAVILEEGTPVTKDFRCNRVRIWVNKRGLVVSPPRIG
Sequence of Potato CPI (P01075 whole entry): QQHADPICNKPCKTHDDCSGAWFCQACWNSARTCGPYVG
Sequence of Factor Xa (Homo sapiens) (P00742 235-488): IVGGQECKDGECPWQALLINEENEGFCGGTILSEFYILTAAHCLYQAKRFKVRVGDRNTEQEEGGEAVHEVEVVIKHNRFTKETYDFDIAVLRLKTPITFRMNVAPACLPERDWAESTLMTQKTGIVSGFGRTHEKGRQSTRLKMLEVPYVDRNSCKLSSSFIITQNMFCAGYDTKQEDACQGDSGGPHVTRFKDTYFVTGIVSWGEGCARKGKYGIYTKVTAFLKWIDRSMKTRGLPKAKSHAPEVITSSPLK
Sequence of Enterolobium EcTI (P86451 1-134): as the sequence (P86451 1-134) above
Sequence of Enterolobium EcTI (P86451 135-174): as the sequence (P86451 135-174) above
Sequence of Matriptase (Homo sapiens) (Q9Y5Y6 whole entry): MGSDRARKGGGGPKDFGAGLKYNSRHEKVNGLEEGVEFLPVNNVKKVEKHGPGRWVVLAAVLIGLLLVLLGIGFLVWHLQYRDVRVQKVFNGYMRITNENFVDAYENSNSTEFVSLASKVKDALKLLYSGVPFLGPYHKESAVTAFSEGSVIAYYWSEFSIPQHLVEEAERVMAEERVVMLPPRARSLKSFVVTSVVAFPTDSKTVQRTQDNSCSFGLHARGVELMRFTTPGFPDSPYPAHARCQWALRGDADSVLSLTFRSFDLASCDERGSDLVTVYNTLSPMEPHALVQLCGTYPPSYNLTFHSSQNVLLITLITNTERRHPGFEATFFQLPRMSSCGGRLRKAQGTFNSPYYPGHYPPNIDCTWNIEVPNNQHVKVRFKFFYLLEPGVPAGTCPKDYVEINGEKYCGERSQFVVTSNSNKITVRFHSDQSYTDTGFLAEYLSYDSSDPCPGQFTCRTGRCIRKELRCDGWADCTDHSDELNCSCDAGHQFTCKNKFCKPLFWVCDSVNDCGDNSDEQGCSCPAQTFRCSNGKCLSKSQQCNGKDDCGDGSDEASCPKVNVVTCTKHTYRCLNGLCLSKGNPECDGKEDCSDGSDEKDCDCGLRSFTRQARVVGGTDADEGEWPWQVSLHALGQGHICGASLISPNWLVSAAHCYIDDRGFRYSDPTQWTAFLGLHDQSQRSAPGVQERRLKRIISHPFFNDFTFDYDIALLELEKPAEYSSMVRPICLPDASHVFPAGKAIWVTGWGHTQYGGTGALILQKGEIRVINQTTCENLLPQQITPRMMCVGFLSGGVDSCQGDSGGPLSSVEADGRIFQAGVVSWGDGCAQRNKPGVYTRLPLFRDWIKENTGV
Sequence of β-Trypsin (Bos taurus) (P00760 149-246): as the sequence (P00760 149-246) above
Sequence of VhTI (P85981 whole entry): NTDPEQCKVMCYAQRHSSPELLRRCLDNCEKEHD

Substance: Potato CPI (from UniProt P01075)
Ki [1]: 2 nM
Ki [2]: 4 nM

Ki [3]: 41 nM
Ki [4]: 16 nM
Substance: CMTI-V (from UniProt P19873)

Ki [5]: 25 nM
Ki [6]: 25 nM
Substance: Oryzacystatin-II (from UniProt P20907)

Ki [7]: 4 nM
Ki [8]: 2.3 nM
Ki [9]: 29 nM
Ki [10]: 0.5 nM
Ki [11]: 0.4 nM
Ki [12]: 6400 nM
Substance: Soybean BBI (from UniProt P01055)

Ki [13]: 1400 nM
Ki [14]: 5.7 nM
Ki [15]: 190 nM
Ki [16]: 70 nM
Substance: SKTI-31 (from UniProt P01070)

Ki [17]: 750 nM
Ki [18]: 0.0023 nM
Ki [19]: 28 nM
Ki [20]: 1.6 nM
Ki [21]: 9 nM
Ki [22]: 600 nM
Substance: MCoTI-II (from UniProt P82409)

Ki [23]: 0.8 nM
Ki [24]: 1.1 nM
Substance: Enterolobium EcTI (from UniProt P86451)

Ki [25]: < 1 nM
Substance: VhTI (from UniProt P85981)

Substance: PCPI 8.3 (from UniProt P20347)
Ki [26]: 320 nM
Ki [27]: 0.07 nM
Ki [28]: > 500 nM
Ki [29]: > 500 nM
Ki [30]: 0.07 nM
Ki [31]: > 500 nM
Ki [32]: 320 nM

Ki [33]: 440 nM
Ki [34]: 0.34 nM
Ki [35]: 38 nM
Ki [36]: 0.41 nM
Ki [37]: 120 nM
Substance: ATSI (from UniProt P80211)

Ki [38]: 1.2 nM
Substance: RATI (from UniProt P01087)

Substance: CMTI-I (from UniProt P01074)
Kd [39]: 41 nM
Kd [40]: 13 nM

Ki [41]: 75 nM
Ki [42]: 780000 nM
Ki [43]: 0.096 nM
Substance: LCTI-II (from UniProt P25850)

Ki [44]: 2.2 nM
Ki [45]: 5.3 nM
Ki [46]: 4 nM
Ki [47]: 2.2 nM
Substance: Cruzipain inhibitor (BbCI) (from UniProt P83051)

Ki [48]: 82 nM
Ki [49]: 55 nM
Ki [50]: 6.1 nM
Ki [51]: 9.4 nM
Substance: EcTI (from UniProt P86451)

Ki [52]: 1400 nM
Ki [53]: 27000 nM
Ki [54]: 0.096 nM
Ki [55]: 41000 nM
Substance: LLDTI-II (from UniProt P26771)
